Measured values published in patent US20090098570A1 (Daiichi Sankyo, published 2009).
Each block holds one binder with its values, some of them ahead of it. No end group written: not given here. *: point of attachment. Biotin = O=C1N[C@H]2[C@H](CS[C@H]2CCCCC(=O)*)N1

Tests used:
[1] = target: T1, His-LXRα/FLAG-RXRα heterodimer (ligand binding domains of human LXRα and human RXRα) (human, UniProt Q13133 164-447; P19793 201-462); assay: FRET (665/620 nm), anti-His tag antibody + streptavidin, biotinylated peptide; with Compound B, relative to DMSO-only control
T1 construct: Co-expressed in E. coli BL21(DE3) from pET15b-LXRα/FLAG-RXRα and purified together on Ni2+ resin; also called His-LXRα and FLAG-RXRα; heterodimer comprising LXRα and RXRα
T1 sequence 1: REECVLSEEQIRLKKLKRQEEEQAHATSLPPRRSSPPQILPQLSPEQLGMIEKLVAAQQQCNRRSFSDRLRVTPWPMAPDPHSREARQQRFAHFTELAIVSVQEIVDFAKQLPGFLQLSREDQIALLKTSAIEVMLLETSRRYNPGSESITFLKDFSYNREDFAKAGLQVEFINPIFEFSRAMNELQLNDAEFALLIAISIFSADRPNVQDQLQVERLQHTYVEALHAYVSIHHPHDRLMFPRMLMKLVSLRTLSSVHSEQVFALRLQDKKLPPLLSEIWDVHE
T1 sequence 2: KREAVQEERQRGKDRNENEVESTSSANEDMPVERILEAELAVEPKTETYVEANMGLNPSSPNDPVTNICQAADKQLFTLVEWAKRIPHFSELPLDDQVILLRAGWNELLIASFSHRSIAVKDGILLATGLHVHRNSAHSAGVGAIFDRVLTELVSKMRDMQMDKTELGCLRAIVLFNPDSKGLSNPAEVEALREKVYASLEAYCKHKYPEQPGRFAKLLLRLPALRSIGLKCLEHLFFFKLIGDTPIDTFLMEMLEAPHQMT
Experimental: (§1) Next, 10 μl of peptide reaction solution (1.00 μl of 5 μM peptide, 1.00 μl of 10× PBS, 2.50 μl of 2 M KF, 0.10 μl of 10% NP40, 0.20 μl of streptavidin (CIS Bio International) and 5.20 μl of H₂O) were added to each well of the 384-well assay plate and incubated for 17 hours at 4° C. The peptide added here was comprising of any of the amino acid sequences of (a) to (g) below, and the amino acid of the N-terminal was biotinylated.
(§2) The value obtained by multiplying 1000 by the value resulting from dividing the measured value at 665 nm when applying excitation light at 337 nm by the measured value at 620 nm was determined. This value was then divided by the value determined by the same method when only DMSO was added without adding LXR ligand (Compound A or Compound B), and this value was then multiplied by 100 and indicated as the percentage relative to the control (% of control) as shown in Table 6.
(§3) (1) According to the same method as Example 2) (using the following peptides (h) to (m), instead of the peptides (a) to (g) in Example 2), the amount of coactivator bound to the heterodimer LXRα and RXRα were determined.

[2] = target: T1, His-LXRα/FLAG-RXRα heterodimer (ligand …); assay: FRET (665/620 nm), anti-His tag antibody + streptavidin, biotinylated peptide; with Compound A, relative to DMSO-only control
Experimental: as §1, §2, §3

[3] = target: T2, His-LXRβ/FLAG-RXRα heterodimer (ligand binding domains of human LXRβ and human RXRα) (human) (UniProt P55055); assay: FRET (665/620 nm), anti-His tag antibody + streptavidin, biotinylated peptide; with Compound B, relative to DMSO-only control
T2 sequence 1: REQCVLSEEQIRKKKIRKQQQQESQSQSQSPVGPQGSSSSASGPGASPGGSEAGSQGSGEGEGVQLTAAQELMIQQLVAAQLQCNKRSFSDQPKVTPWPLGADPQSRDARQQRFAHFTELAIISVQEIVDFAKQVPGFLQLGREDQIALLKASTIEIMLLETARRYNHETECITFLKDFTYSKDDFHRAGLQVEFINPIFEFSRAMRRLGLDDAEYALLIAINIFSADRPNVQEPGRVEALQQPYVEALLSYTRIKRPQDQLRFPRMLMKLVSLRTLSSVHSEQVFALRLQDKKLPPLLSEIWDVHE
T2 sequence 2: T1 sequence 2

[4] = target: T2, His-LXRβ/FLAG-RXRα heterodimer (ligand binding domains of human LXRβ and human RXRα) (human); assay: FRET (665/620 nm), anti-His tag antibody + streptavidin, biotinylated peptide; with Compound A, relative to DMSO-only control
[5] = target: T3, His-LXRβ/FLAG-RXRα heterodimer (ligand binding domains of human LXRβ and human RXRα) (human, UniProt P55055 155-460; P19793 201-462, limits assumed); assay: FRET (665/620 nm), anti-His tag antibody + streptavidin, biotinylated peptide; with Compound B, relative to DMSO-only control
T3 construct: Co-expressed in E. coli BL21(DE3) from pET15b-LXRβ/FLAG-RXRα and purified together on Ni2+ resin; also called His-LXRβ and FLAG-RXRα; heterodimer comprising LXRβ and RXRα
T3 sequence 1: T2 sequence 1
T3 sequence 2: T1 sequence 2

[6] = target: T1, His-LXRα/FLAG-RXRα heterodimer (ligand …); assay: as above; remark: listed apart in the source
[7] = target: T3, His-LXRβ/FLAG-RXRα heterodimer (ligand …); assay: FRET (665/620 nm), anti-His tag antibody + streptavidin, biotinylated peptide; with Compound A, relative to DMSO-only control
[8] = target: T1, His-LXRα/FLAG-RXRα heterodimer (ligand …); assay: as above; remark: listed apart in the source

% of control [1]: 104 % of control
% of control [2]: 127 % of control
Binder: Biotin-HSKASWAEFSILRELLAQDVLCD [PERC NRB2 peptide HSKASWAEFSILRELLAQDVLCD (aa 332-354)]

% of control [3]: 115 % of control
% of control [4]: 114 % of control
Binder: Biotin-NKDVTLTSPLLVNLLQSDISAGHFGVNNKQ [ASC-2 NR-1 peptide … (LXXLL motif on the N-terminal side of ASC-2)]

% of control [3]: 120 % of control
% of control [4]: 116 % of control
Binder: Biotin-CCFCGEDHPRQGSILYSLLTSSKQT (cysteine pairing not given here) [DAX1 peptide … (aa 132-156)]

% of control [3]: 119 % of control
% of control [4]: 120 % of control
Binder: Biotin-CPSSHSSLTERHKILHRLLQEGSPS [SRC-1-2 peptide … (the second LXXLL motif from the N-terminal side of SRC-1)]

% of control [5]: 144 % of control
% of control [6]: 128 % of control
% of control [7]: 155 % of control
% of control [8]: 207 % of control
Binder: Biotin-QKPTSGPQTPQAQQKSLLQQLLTE [SRC-1-4 peptide QKPTSGPQTPQAQQKSLLQQLLTE (the fourth LXXLL motif from the N-terminal side of SRC-1)]

% of control [3]: 116 % of control
% of control [4]: 111 % of control
Binder: Biotin-GHGEDFSKVSQNPILTSLLQITGNG [TRAP220 peptide … (aa 590-614)]

% of control [1]: 92 % of control
% of control [2]: 167 % of control
Binder: Biotin-SPKKKENNALLRYLLDRDDPSDALSK [ACTR NRB3 peptide SPKKKENNALLRYLLDRDDPSDALSK (aa 728-753)]

% of control [6]: 112 % of control
% of control [8]: 181 % of control
Binder: Biotin-KESKDHQLLRYLLDKDEKDL [SRC-1-3 peptide KESKDHQLLRYLLDKDEKDL (the third LXXLL motif from the N-terminal side of SRC-1)]

% of control [3]: 115 % of control
% of control [4]: 104 % of control
Binder: Biotin-HSKASWAEFSILRELLAQDVLCD [PERC NRB2 peptide … (aa 332-354)]

% of control [6]: 116 % of control
% of control [8]: 156 % of control
Binder: Biotin-NKDVTLTSPLLVNLLQSDISAGHFGVNNKQ [ASC-2 NR-1 peptide NKDVTLTSPLLVNLLQSDISAGHFGVNNKQ (LXXLL motif on the N-terminal side of ASC-2)]

% of control [1]: 127 % of control
% of control [2]: 268 % of control
Binder: Biotin-KQEPVSPKKKENALLRYLLDKDDTK [TIF2 NRB2 peptide KQEPVSPKKKENALLRYLLDKDDTK (aa 731-755)]

% of control [6]: 157 % of control
% of control [8]: 267 % of control
Binder: Biotin-HGTSLKEKHKILHRLLQDSSSPVDL [TIF2 peptide HGTSLKEKHKILHRLLQDSSSPVDL (aa 679-703)]

% of control [1]: 110 % of control
% of control [2]: 140 % of control
Binder: Biotin-KNPTSCSRRFYQLTKLLDSVQPIAR [PNRC peptide KNPTSCSRRFYQLTKLLDSVQPIAR (aa 848-872)]

% of control [5]: 195 % of control
% of control [6]: 207 % of control
% of control [7]: 191 % of control
% of control [8]: 362 % of control
Binder: Biotin-DGTPPPQEAEEPSLLKKLLLAPANT [PGC-1α peptide DGTPPPQEAEEPSLLKKLLLAPANT (aa 130-154)]

% of control [6]: 137 % of control
% of control [8]: 254 % of control
Binder: Biotin-SPAMREAPTSLSQLLDNSGAPNVTIKPPGL (also called ASC2 MR-2) [ASC-2 NR-2 peptide SPAMREAPTSLSQLLDNSGAPNVTIKPPGL (LXXLL motif on the C-terminal side of ASC-2)]

% of control [1]: 107 % of control
% of control [2]: 158 % of control
Binder: Biotin-CCFCGEDHPRQGSILYSLLTSSKQT (cysteine pairing not given here) [DAX1 peptide CCFCGEDHPRQGSILYSLLTSSKQT (aa 132-156)]

% of control [3]: 116 % of control
% of control [4]: 120 % of control
Binder: Biotin-SPAMREAPTSLSQLLDNSGAPNVTIKPPGL [ASC-2 NR-2 peptide … (LXXLL motif on the C-terminal side of ASC-2)]

% of control [6]: 182 % of control
% of control [8]: 267 % of control
Binder: Biotin-CPSSHSSLTERHKILHRLLQEGSPS [SRC-1-2 peptide CPSSHSSLTERHKILHRLLQEGSPS (the second LXXLL motif from the N-terminal side of SRC-1)]

% of control [1]: 107 % of control
% of control [2]: 131 % of control
Binder: Biotin-GHGEDFSKVSQNPILTSLLQITGNG [TRAP220 peptide GHGEDFSKVSQNPILTSLLQITGNG (aa 590-614)]

% of control [3]: 124 % of control
% of control [4]: 125 % of control
Binder: Biotin-KQEPVSPKKKENALLRYLLDKDDTK [TIF2 NRB2 peptide … (aa 731-755)]

% of control [3]: 108 % of control
% of control [4]: 111 % of control
Binder: Biotin-KESKDHQLLRYLLDKDEKDL [SRC-1-3 peptide … (the third LXXLL motif from the N-terminal side of SRC-1)]

% of control [3]: 103 % of control
% of control [4]: 129 % of control
Binder: Biotin-SPKKKENNALLRYLLDRDDPSDALSK [ACTR NRB3 peptide … (aa 728-753)]

% of control [3]: 114 % of control
% of control [4]: 108 % of control
Binder: Biotin-HGTSLKEKHKILHRLLQDSSSPVDL [TIF2 peptide … (aa 679-703)]

% of control [3]: 107 % of control
% of control [4]: 109 % of control
Binder: Biotin-KNPTSCSRRFYQLTKLLDSVQPIAR [PNRC peptide … (aa 848-872)]
